Reference: patent US20150110777A1 (PROTHENA BIOSCIENCES, published 2015)

Experiments:
[1] = target: T1, human islet-amyloid polypeptide (IAPP) (human); experiment: Biacore SPR; affinity compared with murine 6B8 as reference
T1 construct: also called hIAPP; human IAPP
T1 peptide: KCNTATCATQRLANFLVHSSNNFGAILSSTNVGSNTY
Experimental: (§1) The affinity of various combinations of 6B8 humanized heavy chains and humanized light chain proteins for hIAPP was analyzed on a Biacore instrument. Biacore analysis was performed by preparing an anti-human CM5 chip following the protocol provided in the kit. The 6B8 antibody was captured such that the maximum binding of rat IAPP would not exceed 20-30 RU. […] Data was blank subtracted to both an irrelevant sensor not containing 6B8 and 0 IAPP concentration to account for the dissociation of 6B8 from the anti-human capture. Data was then analyzed using a global 1:1 fit.

[2] = target: T2, rat IAPP (rat, UniProt P12969 38-74); experiment: not stated for the murine antibody; sentence follows the Biacore results
T2 peptide (looked up): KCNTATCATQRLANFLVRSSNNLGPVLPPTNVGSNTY

[3] = target: T2, rat IAPP; experiment: Biacore SPR; antibody captured on anti-human CM5 chip, rat IAPP flowed over; global 1:1 fit
Experimental: as §1

[4] = target: T3, peptide NTATCATQRL, amino acids 3-12 of hIAPP (human); experiment: epitope mapping against shorter peptides from hIAPP
T3 peptide: NTATCATQRL

[5] = target: T2, rat IAPP; experiment: Biacore SPR (result of Example 7 told in the description)
Experimental: as §1

| Binder | fold of the affinity of the murine 6B8 antibody [1] [fold] | fold difference in affinity against the murine 6B8 antibody [2] [fold] | Kd [3] [µM] | koff [3] [s⁻¹] | kon [3] [M⁻¹ s⁻¹] | binding result [4] | factor of affinity against the mouse-human chimeric 6B8 antibody [5] [fold] |
| --- | --- | --- | --- | --- | --- | --- | --- |
| chimeric mouse-human 6B8 antibody (antibody, V domains shown, Mouse 6B8 variable regions with human constant regions; captured on an anti-human chip; also called ch6B8; chimeric 6B8 antibody) VH: QVQLQQPGAELVKPGASVRLSCKASGYTFTSYWMHWVKQRPGQGLEWLGEINPRNGHSNYNEKIRNKATLTADTSSSTVSMQLSSLTSEDSAVYYCTVNRGFYYFFDVWGTGTTVTVSS VL: DVLMTQSPLSLPVSLGDQASISCRSSQSIAHSNGNTYLEWYLQKPGQSPKLLIYKVSNRFSGVPDRFSGSGSGTDFTLKISRVEAEDLGVYYCFQGSHIPRTFGGGTKLEIKR | ≤ 3 | ≤ 3 | 0.0234 | 0.00513 | 220000 | – | – |
| murine 6B8 antibody (LA21-6B8) (antibody, V domains shown, also called m6B8; mouse 6B8) VH: QVQLQQPGAELVKPGASVRLSCKASGYTFTSYWMHWVKQRPGQGLEWLGEINPRNGHSNYNEKIRNKATLTADTSSSTVSMQLSSLTSEDSAVYYCTVNRGFYYFFDVWGTGTTVTVSS VL: DVLMTQSPLSLPVSLGDQASISCRSSQSIAHSNGNTYLEWYLQKPGQSPKLLIYKVSNRFSGVPDRFSGSGSGTDFTLKISRVEAEDLGVYYCFQGSHIPRTFGGGTKLEIKR | – | – | – | – | – | binds | – |
| humanized 6B8 H2L1 antibody (antibody, V domains shown, Only variable regions are tied to the tested antibody; also called h6B8-H2L1; h6B8 H2L1) VH: QVQLQQSGAEVKKPGASVKVSCKASGYTFTSYWMHWVRQRPGQGLEWMGEINPRNGHSNYNEKIRNRVTMTADTSTSTVYMELSSLRSEDTAVYYCTVNRGFYYFFDVWGQGTTVTVSS VL: DVLMTQSPLSLPVTPGEPASISCRSSQSIAHSNGNTYLEWYLQKPGQSPQLLIYKVSNRFSGVPDRFSGSGSGTDFTLKISRVEAEDVGVYYCFQGSHIPRTFGGGTKLEIKR | ≤ 3 | ≤ 3 | 0.0312 | 0.00832 | 266000 | – | ≤ 1.5 |
